Consider 6 proteins from FireProtDB.

“And” between values parts separate entries of the source, which are not always exact repeats. Identical values can stand only once.

The conditions of the data set: whole UniProt chain shown.
Where [1] appears, read: Salmonella typhimurium (strain LT2 / SGSC1412 / ATCC 700720), pH 9.01, Thermal, DSC, sodium tetraborate 1 mM.
Setting [2] is: Halobacterium salinarum (strain ATCC 700922 / JCM 11081 / NRC-1), pH 7, Thermal, DSC, phosphate 0.1 M.

B1: Alpha-lactalbumin wild type, P00711 (protein)
chain: MMSFVSLLLVGILFHATQAEQLTKCEVFRELKDLKGYGGVSLPEWVCTTFHTSGYDTQAIVQNNDSTEYGLFQINNKIWCKDDQNPHSSNICNISCDKFLDDDLTDDIMCVKKILDKVGINYWLAHKALCSEKLDQWLCEKL
In the case of B1, the Tm (Bos taurus, pH 6, Thermal, DSC, Unknown) was 59 °C.

B2: Formate dehydrogenase wild type, O13437 (protein)
chain: MKIVLVLYDAGKHAADEEKLYGCTENKLGIANWLKDQGHELITTSDKEGETSELDKHIPDADIIITTPFHPAYITKERLDKAKNLKLVVVAGVGSDHIDLDYINQTGKKISVLEVTGSNVVSVAEHVVMTMLVLVRNFVPAHEQIINHDWEVAAIAKDAYDIEGKTIATIGAGRIGYRVLERLLPFNPKELLYYDYQALPKEAEEKVGARRVENIEELVAQADIVTVNAPLHAGTKGLINKELLSKFKKGAWLVNTARGAICVAEDVAAALESGQLRGYGGDVWFPQPAPKDHPWRDMRNKYGAGNAMTPHYSGTTLDAQTRYAEGTKNILESFFTGKFDYRPQDIILLNGEYVTKAYGKHDKK
For B2, the Tm (Candida boidinii) was determined as 59 °C.

B3: Tryptophan synthase alpha chain wild type, P00929 (protein)
chain: MERYENLFAQLNDRREGAFVPFVTLGDPGIEQSLKIIDTLIDAGADALELGVPFSDPLADGPTIQNANLRAFAAGVTPAQCFEMLALIREKHPTIPIGLLMYANLVFNNGIDAFYARCEQVGVDSVLVADVPVEESAPFRQAALRHNIAPIFICPPNADDDLLRQVASYGRGYTYLLSRSGVTGAENRGALPLHHLIEKLKEYHAAPALQGFGISSPEQVSAAVRAGAAGAISGSAIVKIIEKNLASPKQMLAELRSFVSAMKAASRA
For B3, under setting [1], the Tm turned out to be 46.2 °C and the “unfolding enthalpy (van 't Hoff)” value was found to be 3.68 kcal/mol.

B4: FMN-dependent NADH:quinone oxidoreductase 1 wild type, Q88IY3 (protein)
chain: MKLLHIDSSILGDNSASRQLSREVVEAWKAADPSVEVVYRDLAADAIAHFSAATLVAAGTPEDVRDAAQAFEAKLSAETLEEFLAADAVVIGAPMYNFTVPTQLKAWIDRVAVAGKTFRYTEAGPQGLCGNKKVVLVSTAGGLHAGQPTGAGHEDFLKVFLGFIGITDLEIVRAHGLAYGPEQRSQAIDAAQAQIASELFAAA
For B4, the Tm (Pseudomonas putida (strain ATCC 47054 / DSM 6125 / CFBP 8728 / NCIMB 11950 / KT2440), Fluorescence spectroscopy) was determined as 47 °C.

B5: Bacteriorhodopsin wild type, P02945 (protein)
chain: MLELLPTAVEGVSQAQITGRPEWIWLALGTALMGLGTLYFLVKGMGVSDPDAKKFYAITTLVPAIAFTMYLSMLLGYGLTMVPFGGEQNPIYWARYADWLFTTPLLLLDLALLVDADQGTILALVGADGIMIGTGLVGALTKVYSYRFVWWAISTAAMLYILYVLFFGFTSKAESMRPEVASTFKVLRNVTVVLWSAYPVVWLIGSEGAGIVPLNIETLLFMVLDVSAKVGFGLILLRSRAIFGEAEAPEPSAGDGAAATSD
Turning to B5, under setting [2], the “unfolding enthalpy (calorimetric)” value is 50 kcal/mol and 86 kcal/mol and 104 kcal/mol; the “unfolding enthalpy (van 't Hoff)” value was 71 kcal/mol and 125 kcal/mol and 155 kcal/mol.

B6: wild type, Q72LK2 (protein)
chain: MEATLPVLDAKTAALKRRSIRRYRKDPVPEGLLREILEAALRAPSAWNLQPWRIVVVRDPATKRALREAAFGQAHVEEAPVVLVLYADLEDALAHLDEVIHPGVQGERREAQKQAIQRAFAAMGQEARKAWASGQSYILLGYLLLLLEAYGLGSVPMLGFDPERVKAILGLPSHAAIPALVALGYPAEEGYPSHRLPLERVVLWR
As for B6, under “Thermus thermophilus (strain ATCC BAA-163 / DSM 7039 / HB27)”, the Tm was 30 °C.
